The text below walks through data of patent US20040086528A1.

The target in experiment [1] is recombinant, monomeric JR-FL gp120 (full-length) (HIV-1 JR-FL) (UniProt P20871). Briefly: JR-FL gp120 (2 µg/ml) against 125I-MIP-1β on activated CD4+ T cells; antibody at 20 µg/ml.
For experiment [2], the target named is chemokine receptor C-C CKR-5 (human) (human) (UniProt P51681). Briefly: 125I-MIP-1β (0.1 nM) competition on activated CD4+ T cells; gp120 at 0.1 µg/ml.
Experiment [3] has the same target. Nature of the experiment: 125I-MIP-1β (0.1 nM) competition on activated CD4+ T cells; gp120 at 0.2 µg/ml.
Experiment [4] has the same target. Nature of the experiment: 125I-MIP-1β (0.1 nM) competition on activated CD4+ T cells; gp120 at .05 µg/ml [sic].
Experiment [5] addresses CCR5 E18A, HA-tagged (human) (UniProt P51681). Briefly: cell-based or functional assay.
For experiment [6], the target named is CCR5 D2A/D11A/E18A, HA-tagged (human) (UniProt P51681). Nature of the experiment: cell-based or functional assay.
Experiment [7] concerns the target chemokine receptor C-C CKR-5 (human) (human) (UniProt P51681). Briefly: 125I-MIP-1β competition, CD4- CCR-5+ 293 cells against activated CD4+ T cells.
For experiment [8] the target is unchanged. Nature of the experiment: 125I-MIP-1β (0.1 nM) competition on activated CD4+ T cells; gp120 at 20 µg/ml.
For experiment [9] the target is unchanged. Briefly: 125I-MIP-1β (0.1 nM) competition on activated CD4+ T cells; gp120 at 50 µg/ml.
The target of experiment [10] is wild-type CCR5, HA-tagged at the C-terminus (human) (UniProt P51681).
The target of experiment [11] is chemokine receptor C-C CKR-5 (human) (human) (UniProt P51681). Nature of the experiment: 125I-MIP-1β competition on CD4- CCR-5+ 293 cells; gp120 at 50 µg/ml; strongest competition observed.
Experiment [12] shares this target. Briefly: 125I-MIP-1β (0.1 nM) competition on activated CD4+ T cells; gp120 at 5 µg/ml.
Experiment [13] has the same target. Briefly: 125I-MIP-1β (0.1 nM) competition on activated CD4+ T cells; gp41 at 5 µg/ml.
Experiment [14] deals with CCR5 N13A, HA-tagged (human) (UniProt P51681). Nature of the experiment: cell-based or functional assay.
For experiment [15], the target named is wild-type CCR5, HA-tagged at the C-terminus (human) (UniProt P51681). Nature of the experiment: cell-based or functional assay.
Experiment [16] addresses CCR5 R274A/D276A, HA-tagged (human) (UniProt P51681). Briefly: cell-based or functional assay.
Experiment [17] addresses CCR5 Q188A, HA-tagged (human) (UniProt P51681). Briefly: cell-based or functional assay.
For experiment [18], the target named is CCR5 K191A/N192A, HA-tagged (human) (UniProt P51681). Nature of the experiment: cell-based or functional assay.
Experiment [19] deals with CCR5 Q93A, HA-tagged (human) (UniProt P51681). Nature of the experiment: cell-based or functional assay.
Experiment [20] has as its target CCR5 K22A, HA-tagged (human) (UniProt P51681). Nature of the experiment: cell-based or functional assay.
Experiment [21] deals with CCR5 D11A, HA-tagged (human) (UniProt P51681). Briefly: cell-based or functional assay.
The target in experiment [22] is CCR5 R31A, HA-tagged (human) (UniProt P51681). Briefly: cell-based or functional assay.
Experiment [23] addresses CCR5 D2A, HA-tagged (human) (UniProt P51681). Briefly: cell-based or functional assay.
In experiment [24] the target is CCR5 Y184A, HA-tagged (human) (UniProt P51681). Nature of the experiment: cell-based or functional assay.
The target of experiment [25] is CCR5 Q102A, HA-tagged (human) (UniProt P51681). Nature of the experiment: cell-based or functional assay.
Experiment [26] has as its target CCR5 E262A, HA-tagged (human) (UniProt P51681). Briefly: cell-based or functional assay.
Experiment [27] has as its target CCR5 K26A, HA-tagged (human) (UniProt P51681). Nature of the experiment: cell-based or functional assay.
The target in experiment [28] is CCR5 D95A, HA-tagged (human) (UniProt P51681). Nature of the experiment: cell-based or functional assay.
Experiment [29] deals with CCR5 H181A, HA-tagged (human) (UniProt P51681). Briefly: cell-based or functional assay.
The target in experiment [30] is chemokine receptor C-C CKR-5 (human) (human) (UniProt P51681). Nature of the experiment: cell-based or functional assay.
Experiment [31] deals with CCR5 K171A/E172A, HA-tagged (human) (UniProt P51681). Nature of the experiment: cell-based or functional assay.
Experiment [32] deals with CCR5 H175A, HA-tagged (human) (UniProt P51681). Briefly: cell-based or functional assay.
Experiment [33] deals with HIV-1 JR-FL envelope glycoproteins (membrane-bound gp120/gp41) (HIV-1 JR-FL). Briefly: cell-based or functional assay.
For experiment [34], the target named is CD4 on the cell surface (human) (human) (UniProt P01730). Nature of the experiment: cell-based or functional assay.

Several values for one entry are separate records, joined by “and”; a condition that tells them apart may be missing. Identical values can stand only once.

Regarding monoclonal antibody 447-D, the Inhibition (%) of the gp120 competitive effect on 125I-MIP-1β binding in experiment [1] stood at 109%.
With monoclonal antibody 15e, the Inhibition (%) of the gp120 competitive effect on 125I-MIP-1β binding in experiment [1] was determined as 65%.
Still for that read-out and setting: the result for monoclonal antibody 17b reads 79%; that for monoclonal antibody 48d, 54%.
Consider “soluble, oligomeric JR-FL gp120/gp41 complex”, for which the percentage inhibition of 125I-MIP-1β binding in [2] is 46%; in experiment [3] it was 56%; in experiment [4], 84%.
For “HIV-1 JR-FL envelope glycoproteins (membrane-bound gp120/gp41)”, the co-receptor function of CCR5 (HIV-1 entry, luciferase), fold reduction was 15 fold and 20 fold in experiment [5]; 50 fold in experiment [6].
Turning to “recombinant, monomeric JR-FL gp120 (full-length), P20871 32-503 (other; other documents disagree on this pair)”, the fold higher gp120 concentration needed on CD4- cells than on CD4+ cells in experiment [7] is over 100 fold. The percentage inhibition of 125I-MIP-1β binding in experiment [8] worked out at 91%; in experiment [2], 44%; in [9], 95%; in experiment [12] it was 67%; in experiment [3], 40%; in experiment [4], 58%. This substance also displayed an inhibition of 2D7-PE binding (%) in experiment [10] of 70%. The substance further showed a percent inhibition of MIP-1β binding in [11] of 73%.
For the substance recombinant gp41 (IIIB) ectodomain, the percentage inhibition of 125I-MIP-1β binding in experiment [13] worked out at 24%.
For the substance monoclonal antibody IgG1b12, the Inhibition (%) of the gp120 competitive effect on 125I-MIP-1β binding in experiment [1] is 125%.
With CM243 gp120, the percentage inhibition of 125I-MIP-1β binding was 76% in experiment [8], 17% in experiment [2], 40% in experiment [3] and 56% in experiment [4].
antibody D7324: the Inhibition (%) of the gp120 competitive effect on 125I-MIP-1β binding in experiment [1] was -13%.
Take monoclonal antibody A32: in [1], the Inhibition (%) of the gp120 competitive effect on 125I-MIP-1β binding worked out at 51%.
In the case of “MIP-1α, recombinant human (from UniProt P10147 27-92) (ligand)”, the relative % inhibition of NLluc/JR-FL entry into U87MG-CD4 cells by 2 µg/ml chemokine (wild-type = 100) in experiment [14] came out at 121%; in [15], 100%; in experiment [16] it was 48%; in [17] it was 95%; in experiment [18], 14%; in experiment [19], 88%. Further, the relative % inhibition of NLluc/JR-FL entry into U87MG-CD4 cells by 2 µg/ml chemokine (wild-type = 100) in experiment [20] is 19%; in experiment [21], 10%; in [22], -5%; in experiment [23], 81%; in experiment [24] it was 102%; in [5], 100%. Also, the relative % inhibition of NLluc/JR-FL entry into U87MG-CD4 cells by 2 µg/ml chemokine (wild-type = 100) in [25] was determined as 107%; in [26], 100%; in experiment [27], 100%; in experiment [28], 107%; in experiment [29], 29%; in experiment [31], 21%. Further, the relative % inhibition of NLluc/JR-FL entry into U87MG-CD4 cells by 2 µg/ml chemokine (wild-type = 100) in experiment [32] was 119%. Moreover, the % Fusion (RET), LW5 CD4+ cells with HeLa-JR-FL cells, chemokine at 533 ng/ml in experiment [30] was found to be 72%. In [30], this substance yielded a % Fusion (RET), PM1 cells with HeLa-JR-FL cells, chemokine at 400 ng/ml of 39%. This substance also showed a % luciferase activity, entry of ADA env-complemented virus into PM1 cells, chemokine at 100 ng/ml in experiment [30] of 54%. In addition, the % luciferase activity, entry of BaL env-complemented virus into PM1 cells, chemokine at 100 ng/ml in experiment [30] was 54%.
For “synthetic ECL2 peptide of human CCR5 (from UniProt P51681 168-199)”, in [33], the inhibition of fusion between HeLa-envJR-FL cells and PM1 cells (RET), peptide at 11 µg/ml turned out to be 15%; the inhibition of fusion between HeLa-envJR-FL cells and PM1 cells (RET), peptide at 33 µg/ml was 65%; the inhibition of fusion between HeLa-envJR-FL cells and PM1 cells (RET), peptide at 100 µg/ml worked out at 97%.
Consider monoclonal antibody 19b, for which, in [1], the Inhibition (%) of the gp120 competitive effect on 125I-MIP-1β binding was 88%.
Regarding CD4 MAb OKT4a (antibody), in [34], the % Fusion (RET), LW5 CD4+ cells with HeLa-BRU cells, OKT4A at 3 ug/ml came to 0% and the % Fusion (RET), LW5 CD4+ cells with HeLa-JR-FL cells, OKT4A at 3 ug/ml is 0%.
With monoclonal antibody 697-D, in [1], the Inhibition (%) of the gp120 competitive effect on 125I-MIP-1β binding amounted to 3%.
In the case of W61D gp120, the percentage inhibition of 125I-MIP-1β binding in experiment [8] amounted to 86%; in experiment [2] it was 39%; in experiment [3], 53%; in experiment [4], 65%.
As to SF170 gp120, the percentage inhibition of 125I-MIP-1β binding in [2] amounted to 87%; in experiment [3], 140%.
For 92TH014 gp120 (monomeric), the percentage inhibition of 125I-MIP-1β binding came to 6% in [2], 57% in experiment [3] and 65% in experiment [4].
monoclonal antibody 2G12: in experiment [1], the Inhibition (%) of the gp120 competitive effect on 125I-MIP-1β binding was 38%.
Regarding “soluble, oligomeric 92RW020 gp120/gp41 complex”, the percentage inhibition of 125I-MIP-1β binding in experiment [2] is 21%; in experiment [3], 49%; in [4], 74%.
On to “recombinant, monomeric LAI gp120 (full-length) (from UniProt P03377 33-516) (other; other documents disagree on this pair)”, for which the percentage inhibition of 125I-MIP-1β binding in [8] is -18%; in experiment [9] it was -6%; in experiment [12], -5%; in experiment [4] it was -1%.
